Substitutions are numbered along the chain they refer to.
Legend:
Lin28 (Lin28A) [1] = biological target: T1, Lin28 (Lin28A) (Mus musculus (murine), UniProt Q8K3Y3 1-209); assay: EMSA (stoichiometric); 0.5 µM RNA; EMSA: 50 mM Tris pH 7.6, 50 mM NaCl, 10% glycerol, 0.05% NP-40 alternative, 2 mM DTT, 4°C; 2-AP: 50 mM Tris pH 7.6, 50 mM NaCl, 10% glycerol, 4°C; FRET: EMSA buffer, 30°C; conditions: protein: recombinant, label: 5'-32P
T1 sequence: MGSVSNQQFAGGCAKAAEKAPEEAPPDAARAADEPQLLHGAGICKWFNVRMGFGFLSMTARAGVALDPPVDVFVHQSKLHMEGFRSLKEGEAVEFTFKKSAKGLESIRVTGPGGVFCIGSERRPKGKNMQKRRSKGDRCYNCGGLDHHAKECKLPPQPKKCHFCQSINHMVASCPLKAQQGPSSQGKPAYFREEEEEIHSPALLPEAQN

Lin28 119-180 [2] = biological target: T2, Lin28 119-180 (Mus musculus (murine), UniProt Q8K3Y3 119-180); assay: as above; conditions: protein: recombinant, label: 5'-32P
T2 sequence: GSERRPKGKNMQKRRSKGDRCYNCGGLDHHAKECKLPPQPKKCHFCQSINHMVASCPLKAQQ

Lin28 C139A/C161A [3] = biological target: T3, Lin28 C139A/C161A (Mus musculus (murine), UniProt Q8K3Y3 1-209, C139A;C161A); assay: as above; conditions: protein: recombinant; label: 5'-32P; hairpin
T3 sequence: T1 sequence with C139A, C161A

Lin28 (Lin28A) [4] = biological target: T1, Lin28 (Lin28A); assay: EMSA; 1:1 complex; EMSA: 50 mM Tris pH 7.6, 50 mM NaCl, 10% glycerol, 0.05% NP-40 alternative, 2 mM DTT, 4°C; 2-AP: 50 mM Tris pH 7.6, 50 mM NaCl, 10% glycerol, 4°C; FRET: EMSA buffer, 30°C; conditions: protein: recombinant; label: 5'-32P; hairpin
Lin28 (Lin28A) [5] = biological target: T1, Lin28 (Lin28A); assay: EMSA; EMSA: 50 mM Tris pH 7.6, 50 mM NaCl, 10% glycerol, 0.05% NP-40 alternative, 2 mM DTT, 4°C; 2-AP: 50 mM Tris pH 7.6, 50 mM NaCl, 10% glycerol, 4°C; FRET: EMSA buffer, 30°C; conditions: protein: recombinant; label: 5'-32P
Lin28 119-180 [6] = biological target: T2, Lin28 119-180; assay: as above; conditions: protein: recombinant; label: 5'-32P
Lin28 (Lin28A) [7] = biological target: T1, Lin28 (Lin28A); assay: 2-AP fluorescence; 500 nM RNA (stoichiometric); EMSA: 50 mM Tris pH 7.6, 50 mM NaCl, 10% glycerol, 0.05% NP-40 alternative, 2 mM DTT, 4°C; 2-AP: 50 mM Tris pH 7.6, 50 mM NaCl, 10% glycerol, 4°C; FRET: EMSA buffer, 30°C; conditions: protein: recombinant; label: 2-AP; hairpin
Lin28 (Lin28A) [8] = biological target: T1, Lin28 (Lin28A); assay: 2-AP fluorescence; 500 nM RNA; second Lin28; EMSA: 50 mM Tris pH 7.6, 50 mM NaCl, 10% glycerol, 0.05% NP-40 alternative, 2 mM DTT, 4°C; 2-AP: 50 mM Tris pH 7.6, 50 mM NaCl, 10% glycerol, 4°C; FRET: EMSA buffer, 30°C; conditions: protein: recombinant; label: 2-AP; hairpin
[9] = biological target: T4, Lin28 C139A/C161A;Lin28 119-180 (Mus musculus (murine);Mus musculus …, UniProt Q8K3Y3;Q8K3Y3 1-209;119-180, C139A;C161A|); assay: EMSA (stoichiometric); 1:1:1 and 1:1:2 RNA:P3:P2 complexes; EMSA: 50 mM Tris pH 7.6, 50 mM NaCl, 10% glycerol, 0.05% NP-40 alternative, 2 mM DTT, 4°C; 2-AP: 50 mM Tris pH 7.6, 50 mM NaCl, 10% glycerol, 4°C; FRET: EMSA buffer, 30°C; conditions: protein: recombinant;recombinant; tags: ;; label: 5'-32P; hairpin with 5' G-rich bulge and internal loop
T4 sequence 1: T1 sequence with C139A, C161A
T4 sequence 2: T2 sequence

Lin28 (Lin28A) [10] = biological target: T1, Lin28 (Lin28A); assay: EMSA; Hill n = 1.46 ± 0.01; EMSA: 50 mM Tris pH 7.6, 50 mM NaCl, 10% glycerol, 0.05% NP-40 alternative, 2 mM DTT, 4°C; 2-AP: 50 mM Tris pH 7.6, 50 mM NaCl, 10% glycerol, 4°C; FRET: EMSA buffer, 30°C; conditions: protein: recombinant; label: 5'-32P; hairpin
Lin28 (Lin28A) [11] = biological target: T1, Lin28 (Lin28A); assay: EMSA; Hill n = 2 ± 1; EMSA: 50 mM Tris pH 7.6, 50 mM NaCl, 10% glycerol, 0.05% NP-40 alternative, 2 mM DTT, 4°C; 2-AP: 50 mM Tris pH 7.6, 50 mM NaCl, 10% glycerol, 4°C; FRET: EMSA buffer, 30°C; conditions: protein: recombinant; label: 5'-32P; hairpin
Lin28 C139A/C161A [12] = biological target: T3, Lin28 C139A/C161A; assay: FRET strand displacement; 25 nM RNA, 30°C; ΔFRETmax 0.77; EMSA: 50 mM Tris pH 7.6, 50 mM NaCl, 10% glycerol, 0.05% NP-40 alternative, 2 mM DTT, 4°C; 2-AP: 50 mM Tris pH 7.6, 50 mM NaCl, 10% glycerol, 4°C; FRET: EMSA buffer, 30°C; conditions: protein: recombinant; label: 5'-Cy5 (S1); 5'-Cy3 (S3); blunt, 5-nt G-rich bulge in strand 1
Lin28 (Lin28A) [13] = biological target: T1, Lin28 (Lin28A); assay: FRET strand displacement; 25 nM RNA, 30°C; ΔFRETmax 0.84; EMSA: 50 mM Tris pH 7.6, 50 mM NaCl, 10% glycerol, 0.05% NP-40 alternative, 2 mM DTT, 4°C; 2-AP: 50 mM Tris pH 7.6, 50 mM NaCl, 10% glycerol, 4°C; FRET: EMSA buffer, 30°C; conditions: protein: recombinant; label: 5'-Cy5 (S1); 5'-Cy3 (S3); blunt, 5-nt G-rich bulge in strand 1
Lin28 119-180 [14] = biological target: T2, Lin28 119-180; assay: FRET strand displacement; 25 nM RNA, 30°C; ΔFRETmax 0.24, binding without displacement; EMSA: 50 mM Tris pH 7.6, 50 mM NaCl, 10% glycerol, 0.05% NP-40 alternative, 2 mM DTT, 4°C; 2-AP: 50 mM Tris pH 7.6, 50 mM NaCl, 10% glycerol, 4°C; FRET: EMSA buffer, 30°C; conditions: protein: recombinant; label: 5'-Cy5 (S1); 5'-Cy3 (S3); blunt, 5-nt G-rich bulge in strand 1
Lin28 (Lin28A) [15] = biological target: T1, Lin28 (Lin28A); assay: EMSA; Hill n = 1.3 ± 0.1; EMSA: 50 mM Tris pH 7.6, 50 mM NaCl, 10% glycerol, 0.05% NP-40 alternative, 2 mM DTT, 4°C; 2-AP: 50 mM Tris pH 7.6, 50 mM NaCl, 10% glycerol, 4°C; FRET: EMSA buffer, 30°C; conditions: protein: recombinant; label: 5'-32P; hairpin
[16] = hairpin with 5' G-rich bulge and internal loop

Does GCAGAUUUAGGGCAGAGAUUUUGCCCACAAGGAGUUAUCUGCA (structured_RNA) [TL-let-7d] bind (Lin28 (Lin28A) [1]; hairpin)?
Result: binds

Does GCAGAUUUAGGGCAGAGAUUUUGCCCACAAGGAGUUAUCUGCA (structured_RNA) [TL-let-7d] bind (Lin28 119-180 [2]; hairpin)?
Result: binds

Does GCAGAUUUAGGGCAGAGAUUUUGCCCACAAGGAGUUAUCUGCA (structured_RNA) [TL-let-7d] bind (Lin28 C139A/C161A [3])?
Result: binds

With GCGACUGUUGAAUCUCAUGGCGCA (structured_RNA) [TL-miR-21a] as the binder, how does the Kd (Lin28 (Lin28A) [4]) read?
The Kd was 13 nM.

AGGAGAUAUCUGCA (ssRNA) [TL33-46] was tested. Which Kd (Lin28 (Lin28A) [5]) did it give?
The Kd was 0.5 ± 0.1 nM.

Does AGGAGAUAUCUGCA (ssRNA) [TL33-46] bind (Lin28 119-180 [6])?
Result: no binding

GGUACAGGAGAUAU (ssRNA) [TL28-41] was tested. Which Kd (Lin28 (Lin28A) [5]) did it give?
Its Kd is 0.29 ± 0.08 nM.

Does GGUACAGGAGAUAU (ssRNA) [TL28-41] bind (Lin28 119-180 [6])?
Result: no binding

Which “apparent K (half saturation)” value (Lin28 (Lin28A) [7]) does the source give for GCAGAUUGAGGGUCUAUGAUACCACCCGGUACAGGAGAUAUCUGCA (structured_RNA, 2-aminopurine at A9) [TL-let-7g 2-AP9] here?
The value was roughly 548 nM.

Which “apparent K (half saturation)” value (Lin28 (Lin28A) [7]) does the source give for GCAGAUUGAGGGUCUAUGAUACCACCCGGUACAGGAGAUAUCUGCA (structured_RNA, 2-aminopurine at A36) [TL-let-7g 2-AP36] here?
Its value is roughly 548 nM.

For GCAGAUUGAGGGUCUAUGAUACCACCCGGUACAGGAGAUAUCUGCA (structured_RNA, 2-aminopurine at A31) [TL-let-7g 2-AP31], which “apparent K (half saturation)” value (Lin28 (Lin28A) [8]) is on record?
Its value is 1300 nM.

With GCAGAUUGAGGGUCUAUGAUACCACCCGGUACAGGAGAUAUCUGCA (structured_RNA, 2-aminopurine at A21) [TL-let-7g 2-AP21] as the binder, how does the “apparent K (half saturation)” value (Lin28 (Lin28A) [7]) read?
Its value is 500 nM.

Does GCAGAUUGAGGGUCUAUGAUACCACCCGGUACAGGAGAUAUCUGCA (structured_RNA) [TL-let-7g] bind (Lin28 (Lin28A) [1]; [16])?
Result: binds

Does GCAGAUUGAGGGUCUAUGAUACCACCCGGUACAGGAGAUAUCUGCA (structured_RNA) [TL-let-7g] bind (Lin28 119-180 [2]; [16])?
Result: binds

Does GCAGAUUGAGGGUCUAUGAUACCACCCGGUACAGGAGAUAUCUGCA (structured_RNA) [TL-let-7g] bind [9]?
Result: binds

With GCAGAUUGAGGGUCUAUGAUACCGCAAGGUACAGGAGAUAUCUGCA (structured_RNA) [TL-let-7g GNRA loop] as the binder, how does the Kd (Lin28 (Lin28A) [10]) read?
Its Kd is 0.4 ± 0.2 nM.

How did the Kd (Lin28 (Lin28A) [4]) turn out when GCCGCGGGGCCUUCGCCGCACACGGCA (structured_RNA) [TL-miR-99b] was run?
The Kd was 15 nM.

GCAGAUGUCUAUGAUACCACCCGGUACAGGAGAUAUCUGCA (structured_RNA) [TL-let-7g Δbulge] was tested. Which Kd (Lin28 (Lin28A) [11]) did it give?
Its Kd is 0.9 ± 0.2 nM.

Which results are given for AUUGAGGGUCUAUA (ssRNA) [TL5-18]?
Kd (Lin28 (Lin28A) [5]): 1.7 ± 0.4 nM; binding result (Lin28 119-180 [6]): no binding

Does AUACCACCCGGUAC (ssRNA) [TL19-32] bind (Lin28 (Lin28A) [5])?
Result: no binding

What does the source list for GCAGAUUUAGGGUCACACCCACCACUGGGAGAUAUCUGCA (structured_RNA) [TL-let-7a-1]?
binding result (Lin28 (Lin28A) [1]; hairpin): binds; binding result (Lin28 119-180 [2]; hairpin): binds

B1: duplexbulge (dsRNA)
RNA 1: CGUACAGAUUGAGGGUGACAUCG
RNA 2: CGAUGUCAUAUCUGUACG
For B1, which “apparent K (half saturation)” value (Lin28 C139A/C161A [12]) is on record?
The value was 354 nM.

And the “apparent K (half saturation)” value (Lin28 (Lin28A) [13])?
Its value is 58 nM.

And the “apparent K (half saturation)” value (Lin28 119-180 [14])?
Its value is 99 nM.

Which Kd (Lin28 (Lin28A) [15]) does the source give for GCAGAUUGAGGGUCUUGUACCACCCGGUACAAGAUAUCUGCA (structured_RNA) [TL-let-7g Δiloop] here?
Its Kd is 0.52 ± 0.09 nM.

With GGUACACCACAUAU (ssRNA) [TL28-41V] as the binder, how does the Kd (Lin28 (Lin28A) [5]) read?
The Kd was roughly 43.3 nM.

Does UCUAUCAAACCACC (ssRNA) [TL13-26V] bind (Lin28 (Lin28A) [5])?
Result: no binding

How did the Kd (Lin28 (Lin28A) [5]) turn out when UCUAUGAUACCACC (ssRNA) [TL13-26] was run?
The Kd was roughly 43.3 nM.
